Experiment [1] concerns the target tumor-associated glycoprotein TAG-72 (human). The experiment is described as follows: ELISA on TAG-72-coated plates (FIGS. 7 and 8). (In general: In an ELISA, binding on a coated surface is turned into a signal by an enzyme label.)
The target is the same in experiment [2]. The experiment is described as follows: TAG-72-coated plate assay with 125I goat anti-human IgG probe, Scatchard analysis; mean of 8 analyses.

Regarding “humanized CC49 antibody CC49 HuVH/HuVK (ATCC CRL-12209)”, the fold less binding than the chimeric MuVH/MuVK antibody in experiment [1] was 2 fold. This substance came in with a Ka in experiment [2] of 4.27e+09 M⁻¹.
